Laboratory results from patent US9539367B2, “Gallium inhibits biofilm formation” (priority 2003, dated 2017).

B1: conalbumin: Fe chelator (protein, UniProt P02789 20-705, looked up)
Ovotransferrin: APPKSVIRWCTISSPEEKKCNNLRDLTQQERISLTCVQKATYLDCIKAIANNEADAISLDGGQAFEAGLAPYKLKPIAAEVYEHTEGSTTSYYAVAVVKKGTEFTVNDLQGKTSCHTGLGRSAGWNIPIGTLLHRGAIEWEGIESGSVEQAVAKFFSASCVPGATIEQKLCRQCKGDPKTKCARNAPYSGYSGAFHCLKDGKGDVAFVKHTTVNENAPDQKDEYELLCLDGSRQPVDNYKTCNWARVAAHAVVARDDNKVEDIWSFLSKAQSDFGVDTKSDFHLFGPPGKKDPVLKDLLFKDSAIMLKRVPSLMDSQLYLGFEYYSAIQSMRKDQLTPSPRENRIQWCAVGKDEKSKCDRWSVVSNGDVECTVVDETKDCIIKIMKGEADAVALDGGLVYTAGVCGLVPVMAERYDDESQCSKTDERPASYFAVAVARKDSNVNWNNLKGKKSCHTAVGRTAGWVIPMGLIHNRTGTCNFDEYFSEGCAPGSPPNSRLCQLCQGSGGIPPEKCVASSHEKYFGYTGALRCLVEKGDVAFIQHSTVEENTGGKNKADWAKNLQMDDFELLCTDGRRANVMDYRECNLAEVPTHAVVVRPEKANKIRDLLERQEKRFGVNGSEKSKFMMFESQNKDLLFKDLTKCLFKVREGTTYKEFLGDKFYTVISSLKTCNPSDILQMCSFLEGK
B2: lactoferrin: Fe-binding protein (protein, UniProt P02788 20-710, looked up)
Lactotransferrin: GRRRSVQWCAVSQPEATKCFQWQRNMRKVRGPPVSCIKRDSPIQCIQAIAENRADAVTLDGGFIYEAGLAPYKLRPVAAEVYGTERQPRTHYYAVAVVKKGGSFQLNELQGLKSCHTGLRRTAGWNVPIGTLRPFLNWTGPPEPIEAAVARFFSASCVPGADKGQFPNLCRLCAGTGENKCAFSSQEPYFSYSGAFKCLRDGAGDVAFIRESTVFEDLSDEAERDEYELLCPDNTRKPVDKFKDCHLARVPSHAVVARSVNGKEDAIWNLLRQAQEKFGKDKSPKFQLFGSPSGQKDLLFKDSAIGFSRVPPRIDSGLYLGSGYFTAIQNLRKSEEEVAARRARVVWCAVGEQELRKCNQWSGLSEGSVTCSSASTTEDCIALVLKGEADAMSLDGGYVYTAGKCGLVPVLAENYKSQQSSDPDPNCVDRPVEGYLAVAVVRRSDTSLTWNSVKGKKSCHTAVDRTAGWNIPMGLLFNQTGSCKFDEYFSQSCAPGSDPRSNLCALCIGDEQGENKCVPNSNERYYGYTGAFRCLAENAGDVAFVKDVTVLQNTDGNNNEAWAKDLKLADFALLCLDGKRKPVTEARSCHLAMAPNHAVVSRMDKVERLKQVLLHQQAKFGRNGSDCPDKFCLFQSETKNLLFNDNTECLARLHGKTTYEKYLGPQYVAGITNLKKCSTSPLLEACEFLRK

System: P. aeruginosa biofilm
Experiment: Biofilm formation of GFP-labeled P. aeruginosa in continuous culture flow cells
Format: cell-based
Conditions: for effect on P. aeruginosa biofilm formation: Fe chelation, concentrations that did not alter growth (lactoferrin 20 μg ml)

Molecule	effect on P. aeruginosa biofilm formation	effect on established biofilm (once the biofilm was established)
B1	duplicated	–
B2	profoundly inhibited biofilm formation	unable to alter the biofilm
